The text below walks through data of the supplement of paper PMC12042874.

± gives the uncertainty stated by the source.

The series in a line: amyloid nucleation score (Sup35N fusion, yeast selection) (log enrichment); library NNK2; higher = more nucleation; inactive = no reads after selection. In short, it runs like this:
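The nucleation score is the DiMSum log enrichment of output over input reads, centred on the mode score of non-aggregating sequences. Only sequences with 100 or more input reads were scored, using Illumina sequencing of input and output plasmid inserts. Psi-negative yeast expressing Sup35N fused to peptides of 20 random codons were induced 24 hours with 100 μM copper sulfate and grown 7 days at 30°C on medium lacking adenine and uracil.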
QLNDWSYMVKFSAV: the amyloid nucleation score was -0.466 ± 0.64.

With QLVLKVRLWVDGLYVLEWGW, the amyloid nucleation score is -0.042 ± 0.49.

As to QLYRCPFCHGGALSYYIRKV, the amyloid nucleation score entry is “inactive”.

QNLASIDLDYFFSEYYPLLA: the amyloid nucleation score is -1.37 ± 0.42.

QNMNLVHEIGMNRSLVFTFW: the amyloid nucleation score is -0.167 ± 0.29.

Turning to QNRKERYVYIFRAEWFPWCG, the amyloid nucleation score is -1.13 ± 0.76.

As to QNYARL, the amyloid nucleation score was -1.22 ± 1.1.

Substance QPSVL registered an amyloid nucleation score of 0.524 ± 0.81.

In turn, QQCLINVSSRLLAGVNACSM gave an amyloid nucleation score of 1.22 ± 0.34.

As for QQYSADLLRGYPCMSYVPVG, the amyloid nucleation score is -0.091 ± 0.26.

With QRAYVPQTLGVRISVSSRWQ, the amyloid nucleation score is 3.41 ± 0.096.

For QRCWRSGTFSGM, the amyloid nucleation score is -0.107 ± 1.

For QRSAKLRALPEGIKHKKWLM, the amyloid nucleation score is -0.108 ± 1.1.

Substance QSKFDTFGSFACTYRYFTAN yielded an amyloid nucleation score of 0.698 ± 0.8.

QSLFFVI: the amyloid nucleation score was -0.395 ± 0.48.

For QSLHRGR, the amyloid nucleation score is -0.311 ± 1.1.

For the substance QSMICTFFVLCLRSRYW, the amyloid nucleation score stood at 4.46 ± 0.068.

With QSMMSFMSRNVFRFFMGKVT, the amyloid nucleation score entry is “inactive”.

QSVNCYNVNSDVCNKVYNDL showed an amyloid nucleation score of 0.716 ± 0.42.

Consider QVALGNVCNRLYTLMARQAN, for which the amyloid nucleation score is -0.283 ± 0.26.

Regarding QVGFPWFGRQVKDYLLLYKP, the amyloid nucleation score was 0.22 ± 0.4.

Take QVRELVVLNSMGYPSSW: the amyloid nucleation score is -0.188 ± 0.41.

As for QWGSMVSCRCYRPPTEGPGW, the amyloid nucleation score is -0.605 ± 0.76.

With QWSFPAILRLDTNTSRYYFQ, the amyloid nucleation score is -0.776 ± 1.1.

Consider QYDIVPNVSGNYPNGIFKDR, for which the amyloid nucleation score entry was “inactive”.

Take QYFFNMMLMMDMLSLGGLSY: the amyloid nucleation score is -0.063 ± 0.45.

Consider QYLLIIMFRYYLYCGVQRNY, for which the amyloid nucleation score was -0.121 ± 1.1.

In the case of QYLSALSSAISGGDVYMMSK, the amyloid nucleation score turned out to be 5.15 ± 0.065.

In turn, QYNKCSMALVFCYCS yielded an amyloid nucleation score of 8.26 ± 0.038.

With QYSTFATNRVFSKAIMHLSG, the amyloid nucleation score was -0.445 ± 0.36.

In turn, QYVEFPLMLTET yielded an amyloid nucleation score of 0.025 ± 0.79.

As for QYVVNLFYPLYMEKKCWSSI, the amyloid nucleation score turned out to be 6.288 ± 0.039.

As to QYYRN, the amyloid nucleation score was determined as 1.51 ± 0.58.

Turning to RADALIVTVARFTPPALVKV, the amyloid nucleation score stood at 1.15 ± 0.68.

As for RADPVRVYSCVEVLGRALLG, the amyloid nucleation score result was “inactive”.

As for RAFCVGSTYSSSGGQSLMRV, the amyloid nucleation score result is “inactive”.

The substance RAFRKAGMYSYLSG had an amyloid nucleation score of 3 ± 0.056.

As for RAFYLVTSPDFYFCRILGAT, the amyloid nucleation score entry is “inactive”.

On to RAIDRRKVFARYVFWSFSWT, for which the amyloid nucleation score is -0.141 ± 0.33.

With RAQFIQLGDEYYTRC, the amyloid nucleation score was determined as 0.564 ± 0.49.

As to RASASNR, the amyloid nucleation score was -0.559 ± 0.36.

As for RASMVDF, the amyloid nucleation score is 0.108 ± 0.65.

As for RASVFF, the amyloid nucleation score entry is “inactive”.

Regarding RCFCG, the amyloid nucleation score turned out to be 0.226 ± 0.35.

For the substance RCFGFRVVRFVV, the amyloid nucleation score turned out to be 0.014 ± 0.2.

Consider RCFSRNFEECFENAYTWV, for which the amyloid nucleation score is -1.07 ± 0.33.

Regarding RCGFLWCRHFPATSELGCVL, the amyloid nucleation score was 0.752 ± 0.8.

As for RCLLKLDQV, the amyloid nucleation score is -0.509 ± 0.4.

Substance RCMFDIYFVLVTCEQWCCLV came in with an amyloid nucleation score of 0.099 ± 0.49.

In the case of RCTKA, the amyloid nucleation score was found to be 0.341 ± 0.21.

RCWAAHYVDTWACNSLAVII had an amyloid nucleation score of 1.19 ± 0.68.

RDGKDRAYCGW registered an amyloid nucleation score of 0.483 ± 0.5.

Consider RDMLRQMNSYQEYLFVRLDN, for which the amyloid nucleation score was -0.763 ± 1.1.

Turning to RECIYFRFYSRWATLSFLNR, the amyloid nucleation score is -0.368 ± 1.

Turning to RECNRNFQKSGSSEHETGLG, the amyloid nucleation score is -0.844 ± 0.54.

In the case of REEGFS, the amyloid nucleation score is -1.29 ± 0.54.

For REFMNFWHWRVCICAQE, the amyloid nucleation score is -0.501 ± 0.38.

REHSYLSIFLWMCAFVTNVE: the amyloid nucleation score is -0.98 ± 1.1.

Regarding REKVPYT, the amyloid nucleation score was -0.428 ± 0.48.

In turn, REKVVKEPRTDESFVGRGGS came in with an amyloid nucleation score of 0.724 ± 0.28.

Regarding RESWLAGMSVYWANSGMSFA, the amyloid nucleation score is -0.487 ± 0.36.

In the case of RETLAFA, the amyloid nucleation score is -0.329 ± 0.33.

In the case of RFDCLTVLLVFESYHFKTAG, the amyloid nucleation score was -0.392 ± 0.31.

With RFDRTRCETKSRLVRIR, the amyloid nucleation score amounted to 0.084 ± 0.41.

With RFDSDNTFDPGRWYSCSQDA, the amyloid nucleation score was -0.346 ± 0.53.

RFEYLFLEEYKLLAMRYLRT: the amyloid nucleation score was -0.986 ± 0.3.

RFFADLTMDQFNIFGGLWQG had an amyloid nucleation score of 1.09 ± 0.3.

Consider RFGSLVFFCTGFERSWHTSA, for which the amyloid nucleation score amounted to 0.684 ± 0.44.

Regarding RFLLQS, the amyloid nucleation score was -0.39 ± 0.61.

Substance RFMVFGNLYDERYTVRFLMR yielded an amyloid nucleation score of 3.66 ± 0.089.

On to RFNIFVLLFLVPEVGLHMVV, for which the amyloid nucleation score entry is “inactive”.

As for RFNVLRIGPLSHLQGWEHPT, the amyloid nucleation score is -0.632 ± 0.63.

Consider RFRGGSKSGLYFIVCISDVW, for which the amyloid nucleation score is -0.758 ± 0.44.

For RFSDM, the amyloid nucleation score was -0.126 ± 0.31.

RFSGASNLVESPIKWIVGAH returned an amyloid nucleation score of 4.96 ± 0.06.

RFSQRNPITVHGQSDTV: the amyloid nucleation score entry is “inactive”.

RFVVSEGLIGVVGSSKLILY showed an amyloid nucleation score of 0.106 ± 1.

Take RFVYMDIRDMAGWTPLYVYP: the amyloid nucleation score is -1.23 ± 1.

Turning to RFVYMLVCIELVG, the amyloid nucleation score was -0.953 ± 0.78.

For RFWIEVEVYDVISFVYLERW, the amyloid nucleation score is 0.428 ± 0.34.

For the substance RGINKTDIFVFELCVHDVCL, the amyloid nucleation score was determined as 2.58 ± 0.16.

With RGKYAITCVMLWK, the amyloid nucleation score came out at 5.769 ± 0.054.

RGQMRLQRRLPKLRTSGKLQ displayed an amyloid nucleation score of 1.49 ± 0.34.

RGVLTSSLFPSKGRWVVGHW yielded an amyloid nucleation score of 2.35 ± 0.075.

RHFHGGSSIAARAVTWAGQG displayed an amyloid nucleation score of 1.5 ± 0.44.

For the substance RHNRC, the amyloid nucleation score was -0.117 ± 0.79.

Substance RHPGPAL registered an amyloid nucleation score of 0.857 ± 0.25.

As for RHTYVHYAHKVYLESFLGCG, the amyloid nucleation score came out at 6.327 ± 0.04.

RIATLSFDSAIIQVYLRGSG: the amyloid nucleation score was determined as 7.028 ± 0.033.

As to RICVKLKVDSGVKMHQTTAG, the amyloid nucleation score came out at 7.952 ± 0.034.

With RIDGVFTIVSFYMELEGIRV, the amyloid nucleation score result is “inactive”.

Consider RIDILGVTRWN, for which the amyloid nucleation score worked out at 0.633 ± 0.3.

For the substance RIEVLTLCGGEAGSLVMGIV, the amyloid nucleation score was found to be 1.16 ± 0.48.

On to RIFITIRIINPPKDFFIRCY, for which the amyloid nucleation score entry is “inactive”.

RIFTFLSVSHPN had an amyloid nucleation score of 4.53 ± 0.053.

In the case of RIFVWVGSVWFWGVS, the amyloid nucleation score was 3.55 ± 0.13.

With RILIINLSPNEYMIGLH, the amyloid nucleation score was determined as 4.3 ± 0.1.

As to RIQINWDEFGQDRELRVSGR, the amyloid nucleation score is 0.75 ± 0.5.

The substance RIRRVSERMSVFRTLHRTMW had an amyloid nucleation score of 5.01 ± 0.079.

For RISCSMVKRSYFRHVLVCEI, the amyloid nucleation score was found to be 1.74 ± 0.26.

On to RISNVWENTFTLSAGSWGVR, for which the amyloid nucleation score turned out to be 1.38 ± 0.22.

For the substance RISVYRPVGVLLF, the amyloid nucleation score was found to be 0.755 ± 0.4.

In the case of RITDYRCLTMNKGQSARNQG, the amyloid nucleation score entry was “inactive”.
